Patent US20250000950A1, “PRESERVED FORMULATIONS” (ELI LILLY AND COMPANY, priority 2021, published 2025)

Legend:
Isoelectric point of BIF = format: physicochemical
[1] = Onset of melting temperature (Tm, Onset) by differential scanning calorimetry (DSC); format: physicochemical; conditions: BIF 2 mg/mL
Protocol: Biophysical developability/high-throughput profiling studies are conducted on 2 mg/mL formulations of BIF in different buffer matrices and pH conditions. The onset of melting temperature Tm (Tm, Onset) was measured using differential scanning calorimetry (DSC). Tm, Onset is the temperature at which a folded protein starts to lose its native conformation, i.e., the higher the Tm, Onset, the less susceptible a protein to denaturation.

B1: insulin efsitora alfa (protein)
chain: FVNQHLCGSHLVEALELVCGERGFHYGGGGGGSGGGGGIVEQCCTSTCSLDQLENYCGGGGGQGGGGQGGGGQGGGGGECPPCPAPPVAGPSVFLFPPKPKDTLMISRTPEVTCVVVDVSHEDPEVQFNWYVDGVEVHNAKTKPREEQFNSTFRVVSVLTVVHQDWLNGKEYKCKVSNKGLPAPIEKTISKTKGQPREPQVYTLPPSREEMTKNQVSLTCLVKGFYPSDIAVEWESNGQPENNYKTTPPMLDSDGSFFLYSKLTVDKSRWQQGNVFSCSVMHEALHNHYTQKSLSLSPG
modifications: homodimer
notes: dimer of an insulin receptor agonist fused to a human IgG Fc region
- pl (isoelectric point) of BIF (Isoelectric point of BIF): ≈ 6.1
- Tm, Onset ([1]; Citrate 10 mM, NaCl 25 mM, pH 5.5): 60.29 °C
- Tm, Onset ([1]; Citrate 10 mM, NaCl 25 mM, pH 6.0): 63.58 °C
- Tm, Onset ([1]; Citrate 10 mM, NaCl 25 mM, pH 6.5): 65.61 °C
- Tm, Onset ([1]; Citrate 10 mM, NaCl 25 mM, pH 7.0): 66.32 °C
- Tm, Onset ([1]; Citrate 10 mM, NaCl 150 mM, pH 5.5): 59.59 °C
- Tm, Onset ([1]; Citrate 10 mM, NaCl 150 mM, pH 6.0): 62.78 °C
- Tm, Onset ([1]; Citrate 10 mM, NaCl 150 mM, pH 6.5): 64.76 °C
- Tm, Onset ([1]; Citrate 10 mM, NaCl 150 mM, pH 7.0): 65.41 °C
- Tm, Onset ([1]; Phosphate 10 mM, NaCl 25 mM, pH 6.0): 62.86 °C
- Tm, Onset ([1]; Phosphate 10 mM, NaCl 25 mM, pH 6.5): 64.06 °C
- Tm, Onset ([1]; Phosphate 10 mM, NaCl 25 mM, pH 7.0): 66.39 °C
- Tm, Onset ([1]; Phosphate 10 mM, NaCl 25 mM, pH 7.5): 66.90 °C
- Tm, Onset ([1]; Phosphate 10 mM, NaCl 150 mM, pH 6.0): 63.36 °C
- Tm, Onset ([1]; Phosphate 10 mM, NaCl 150 mM, pH 6.5): 64.42 °C
- Tm, Onset ([1]; Phosphate 10 mM, NaCl 150 mM, pH 7.0): 65.79 °C
- Tm, Onset ([1]; Phosphate 10 mM, NaCl 150 mM, pH 7.5): 66.11 °C
